Source: the DeepSol protein solubility set

Assay: soluble on expression in E. coli; label from the status in PepcDB or PDB records

| Sequence | soluble on expression in E. coli |
| --- | --- |
| MKIVLIGAGNVATHLGIALQKAGCLILQVYSRTEESASALAARLSVDYTIVPDEIRRDADLYIVALKDAVLRQLAPVLVKGREQALFVHTAGSMSMDLWKGLVKRYGVLYPMQTFSKQREVDFNTVPFFIEASAPAEVELLRMVAVRLSPKVYEVTSGQRRYLHLAAVFACNFANHMYALSSHILEKQGIPFEVMLPLIDETAGKVHELSPTQAQTGPAVRYDENVISKHLEMLADEESLQELYEKISKSIHNLPLSVIQANKEGKNS | not soluble |
| MAHHHHHHMAASSPLGMANYVTGDPLGVAGQEAGKGAGALLAAVQQCSAELSHEFGDGVALMTGEPAAATTSSHASPLSPEQRVALSAGAVTCLSVASLPGTTDTAVAVVGTTVGTVALLLIEGSRAVYKVAECSLMEWSSGAITAQDAIVDVAFSMDPAGRPEFVGAASAGCVVVVDVQLLYRPSGNSSRSTDEEVGDTATDAPAAVVHRAEWHQATELWSNSALRAKAVEALERSSAQLVRHCCSDVFACSFVEADVVRILAPQRLQAAVAIDVALVVVLSSGALHYVERVVEGGSVRLLAEHHWQRLAKGAAFTSHASAATQGADSAAENDFSADGTSVHLVTDSRAVPHVIYRYRLSPYHVQACQDGGQTASGGGGNYSMAALALPCATESVTHVCDAHLHFSEKDAACHVVLAGTQRVPVGKVGYMSVASRVGSLGHAQQQQHAGVAGCRTLAWWAVVQNAVLPRQTFDRSALERQALQHQHQQQQQQLHDGHAFPPFRTNAGSPPFTVHVQSNTMALPCGLGTCPASALTSPATSSPATAGAGVASGVSAVGPGQGSGFAAAFMLTDILVLASGHELYVGDLRDVPRSAKTLPVPRPLRSFGSVVEGITAGPYMDARAVLVATGSRVAPVSLV | not soluble |
| MSLNYNAPHRHAVIELSQSAVVHNLKVIKENTHAKEIMAVLKANAFSHGLPEMASLSITAGATRFGMAMLDEALILRDLGYIQPIDVLGLTDPRYARLAAERNITLAFSTKESIKAAAEQLAGTGLTLKVSLPVDTGLNRIGFKSREDLVAAIQEVSAQDTLIFQSMWTHFATADTPNVDYVDFQISEWQRLTHDLPVEPNEKHFANTGIATWYPEKINTDIVRLGIGLFGINGSVPIMSMPFELIPALSLKAKVVNSKPLKKGDAVGYGAEYHAPNDGYLITIPIGHSDGYPFNGSGMRALVADGQIGHIVGGVAMDQSMILVTNPVAVGTTVTLIGRVGDQSITMQDLAEHTQSSIVALMNDFAPRLQRIIVSEGHHHHHH | not soluble |
| MSLIISELRHEHALRDLLRAAGMSRSTWYYNMNALKQGDRYAGLKENIRKIYHYHKGRYGYRRITLALRKQGLRINHKTVQRLMAELSLRSVIRAKKYRAWKGRTGEAAPNILSRNFGASKANEKWVTDVTEFPVQGKKLYLSSVLDLFNREVIAYSLSERPVMEMVNTMLDGAFPKLRPGDAPLLHSDQGWHYRMRSYQERLKAHGMTQSMSRKGNCLDNAVMENFFGTLKSECFYLREFRSVSALRKAVEDYIHYYNNERISLKLKGLSPVEYRTQALRAAEGHHHHHH | not soluble |
| MSKVPSDIEIAQAAKMKPVMELARGLGIQEDEVELYGKYKAKISLDVYRRLKDKPDGKLILVTAITPTPAGEGKTTTSVGLTDALARLGKRVMVCLREPSLGPSFGIKGGAAGGGYAQVVPMEDINLHFTGDIHAVTYAHNLLAAMVDNHLQQGNVLNIDPRTITWRRVIDLNDRALRNIVIGLGGKANGVPRETGFDISVASEVMACLCLASDLMDLKERFSRIVVGYTYDGKPVTAGDLEAQGSMALLMKDAIKPNLVQTLENTPAFIHGGPFANIAHGCNSIIATKTALKLADYVVTEAGFGADLGAEKFYDVKCRYAGFKPDATVIVATVRALKMHGGVPKSDLATENLEALREGFANLEKHIENIGKFGVPAVVAINAFPTDTEAELNLLYELCAKAGAEVALSWAKGGEGGLELARKVLQTLESRPSNFHVLYNLDLSIKDKIAKIATEIYGADGVNYTAEADKAIQRYESLGYGNLPVVMAKTQYSFSDDMTKLGRPRNFTITVREVRLSAGGRLIVPITGAIMTMPGLPKRPAACNIDIDADGVITGLF | soluble |
| MERPRFSNYYAVRVTGGQEINVALMIEERIKTNNIKEVYSIIVPPNVKGYVILEATGPHVVKLVSQGIRHVRGFAQGLVQKDDIIKFISKTTIAPAYKVGDMVEVTSGPFRGMQAQVVRIDSAKNEVVLNILESSFPLQVTVPIDQVKPVKK | soluble |
| MKSATSAQRPYQEVGAMIRDLIIKTPYNPGERLPPEREIAEMLDVTRTVVREALIMLEIKGLVEVRRGAGIYVLDNSGSQNTDSPDANVCNDAGPFELLQARQLLESNIAEFAALQATREDIVKMRQALQLEERELASSAPGSSESGDMQFHLAIAEATHNSMLVELFRQSWQWRENNPMWIQLHSHLDDSLYRKEWLGDHKQILAALIKKDARAAKLAMWQHLENVKQRLLEFSNVDDIYFDGYLFDSWPLDKVDA | soluble |
| MICLEKVEDIPRLQELFAQILIVHHQARSDVLKVKGSKFTDKELEGVIGDANKPVFVYEDEAGTILCHLFLIIKEVSENDGPQKPIKTLFIDDLCVEEKARGQKLGEKLYQFALDYATEQECYNATLHVWNDNQGTLDFYEHLGVKPRYTEMKTVLKLEHHHHHH | not soluble |
| KQVENYDSWEDLVSSIDTIERKDDGTLEIYLTWKNGAISHHPSTITNKKCPQKMLQFYESHLTFRENE | soluble |
| MSLEPLAETYQALVLAVRDYVTKNGFHGAVLGLSGGIDSALTLAIAADAIGADKVQAVMMPFRYTAQMSVEDAKEQAERMGVEFNIISIEPMFEGFMAQLAPLFEGTARDTTEENLQARCRGVLLMALSNKRRCIVLTTGNKSEMAVGYATLYGDMAGGFDVLKDVPKTLVFKLCEYRNSVDYVIPQRVIDRPPSAELAPDQVDQDSLPPYDILDAILKRYVEEDASVADMVAEGFEEAVVRKVIRLVDLNEYKRRQAAVGPRITARNEGHHHHHH | not soluble |
| MGSDKIHHHHHHMILYFSGTGNSRYVARKIAQELNDELISLNQLIKDEKTDELISADKPFIFVCPTYAWRLPIVVTDFIKETKFLGSNRVYFVMTCGGDTAKSINYIQKLCKYKEWQLKGMAEIKMPENYIALFSTTDKETSKQMIKEADKQIYRIISDIRNENEFETITPSGLGGTIKSGIINTVFYKTIISAKGFHYTDKCIGCGKCVELCPLNNINLKNKKPVWKNNCTHCMACICGCPTEAIEYKNKTQNRERYYLE | not soluble |
| MAHLVITIGCEYGAKGNQIGKKVAKDLGIKFYDRDTVDEIIKEVGIPKDIMEKVEEGITIAGKGAEGDVRGSFSKYADLTERAIHVQKTIIRKLSDRESCVIIGRSADYILKEHKPILRIFIYSPDEVRIENVMKSHNLSEDDAKLFITEKDKRYHKRHMALTGSNRGDRHNRDMLIDSSLLGVDGTAELIESLARKVVENESKTEAGGDK | not soluble |
| MNLTDYVKEVSRQDFGIEFQHTASWNSRLQTTGGRFFPEDGHLDFNPKFCKKGDAGTFRKIVRHELCHYHLYYAGKGYRHGDKDFKDLLLQVNGVRYAPSIQSNTFYHYYQCESCGQVYQRKRRMNTKKYACGNCHGKLRHQNQSLEHHHHHH | not soluble |
| MGSDKIHHHHHHMDDRARALLKALIERYIADGQPVGSRTLSKVFDLSPATIRNVMADLEELGLIHSPHTSAGRVPTPRGYRMFVDSLLAVRAYQFEPAHIGELLPVSEPSRAVNAAAALLSNLTQFAGVVLTPKRTQIFRQIEFIRLSDKRVLLIIVTPEGDVQNRILSAQRDYTEAELLEAGNFFNVHFSGKSFDAVRRTLSTELAQLRDDISRLMQAAVEAGAEAADDGEAVVISGERKLLDVTDIASDMDRLRKMFSLFEKKTDLLQLLDVSSRAQGVQIYIGGDSQLVPMEEVSVITAPYGVDGKVIGTLGVIGPTRMAYERVIPIVDITARLLSNALSHNQ | not soluble |
| GTDDEEKDNNGQGSVSVETNYLPIADPYVMFYNNKYYAYGTGGTTAGEGFACFSSDDLKNWKREGQALSATDSYGTWGFWAPEVYYVESKKKFYLFYSAEEHICVATSTTPEGPFRQEVKQPIWSEKSIDTSLFIDDDGTPYLYFVRFTDGNVIWVAQMTDDLMSIKTETLNQCIKAEVSWELLQGKVAEGPSLLKKNGVYYLIYSANHYENKGYGVGYATSDTPMGPWVKYSKNPLLQGDAATGLVGTGHGAPFQCKDGSWKYIFHAHWSAAEIQPRTSYIKDFAISDQGVVTISGTVIKPRVLK | soluble |
| MGSDKIHHHHHHMERLFESFIKKLAITNTSFVRSLMNEIEWEARLIGIKGARGVGKTTLLLQYIKLNLPMDKTVLYASVDNIWFSEHKLYDLASDFVKRGGKYLFLDEVHKYPNWSQELKNIYDDLPELHVVFTGSSLLEILNAKSDLSRRAIVYEMQGFSFREYLNWNEKLSLPILTLNNILDNHLALSVGIVDKVKVLKHFSDYLKHGYYPYYNELPSLYYSRINEVVNLIVELEIPQLRGVDISYTTKIKQLLYIIAESAPFIPNVSKLSERIGISRNSLLAYLDALHDSCLTMNLQKEGSGISRLQKPDKLFLENPNLMYALSASQIDIGNVRETFFANQLRYCHKINVSKESDFFIDGRYTFEVGGRHKGKQQINGLSDAYIVADDIEYGINNKIPLWLFGFLY | not soluble |
| MGSDKIHHHHHHMKSPQELRNKLFRYWRQPGLRLRQLLDQAAWPLVLSIGKPTAQVFSSQVAMVQKHVEAWREVSVGKVEWKRIGYRSGADLVSIPTQWCLRSPTEWITAMSNEEISAQYMSLEHLVEHLPAVYRRLIITRPSLWKNKRSEEVIQVAGLAQRLSPGCAQGLPLRLLSGYGVDTKFFERNELLLSKMLDVRYEGEASRQGLCDFLDAYDDTSHWVLLAPLEAGLLPFKRQLVTTSELGRASLPGTRLLIVENQKCLHLLRELPGTIAILGCGSDLAWLGSAQLHGKSIAYWGDVDTWGMRMLARARSRFNAVIPLLMTATVFDAHSDFTVPEPIRAQDTPPADLTPSETALFKRLVQCSRGRLEQEFISREVVWAALEEWIQRRRG | not soluble |
| MSESFAELFEESLKTLNLQAGSIITGVIVDIDYQARWVTVHAGLKSEALIPLEQFYNDAGELSINVGDEVHVALDSVEDGFGETKLSREKAKRAECWIVLEAAFAAEEVVKGVINGKVKGGFTVDVNGIRAFLPGSLVDVRPVRDTTHLEGKELEFKVIKLDQKRNNVVVSRRSVLEAENSAEREALLESLQEGQQVKGIVKNLTDYGAFVDLGGVDGLLHITDMAWKRIKHPSEIVNVGDEIDVKVLKYDRERNRVSLGLKQLGEDPWVAIKARYPESTRVTARVTNLTDYGCFAELEEGVEGLVHVSEMDWTNKNIHPSKVVQVGDEVEVMVLDIDEERRRISLGIKQCKSNPWEDFSGQFNKGDKISGTIKSITDFGIFIGLDGGIDGLVHLSDISWNEVGEEAVRRFKKGDELDTVILSVDPERERISLGIKQLESDPFSEYVQENDKGAIVKGVVKEVDAKGAIITLANDIEATLKASEISRDRIEDARNVLKEGEEVEAKIISVDRKSRVIQLSIKSKDVEDEKEAIQSLRDKPAASDIAAGPTTLGDLLRAQMEKQN | soluble |
| MAHHHHHHMKQNGGRETPDGVRYPHIALDVLGQCHSSACVELGNTRVICAVHHPQQLVDEYRGSRGRVACTVRRSASAGSHAAGSAQPSVVTPEKDMSLALEGVAEEVVILEKIPQLLVEVVVEILAEDGGVWDAVATSMSAALVSGGFEMYDLFSACGSALLSDGAVVLDPDAAEESNAQASALVCLMLNSGDICYARHQGSCEPGTVLELVSSAMKGCLSRKSAITTQLINHPIL | not soluble |
